Proportion of VP1 in the VP1/VP2 VLP and proportion of VP1 in the VP1h/VP2 VLP data for one substance are collected here from publication PMC9695803.

For the assay, the target named is Human parvovirus B19 major capsid protein VP2 (human parvovirus B19).

The substance “Human parvovirus B19 minor capsid protein VP1 (from UniProt Q9PZT0 1-781) (natural protein)” came in with a proportion of VP1 in the VP1/VP2 VLP of 5.11% and a proportion of VP1 in the VP1h/VP2 VLP of 25.4%.
